From IntAct's records for PubMed 23565059

B1: Homeodomain-interacting protein kinase 2 (Mus musculus), Q9QZR5 (parent)
chain: MAPVYEGMASHVQVFSPHTLQSSAFCSVKKLKVEPSSNWDMTGYGSHSKVYSQSKNIPPSQPASTTVSTSLPIPNPSLPYEQTIIFPGSTGHIVVTSASSTSVTGQVLGGPHNLMRRSTVSLLDTYQKCGLKRKSEEIENTSSVQIIEEHPPMIQNNASGATVATATTSTATSKNSGSNSEGDYQLVQHEVLCSMTNTYEVLEFLGRGTFGQVVKCWKRGTNEIVAIKILKNHPSYARQGQIEVSILARLSTESADDYNFVRAYECFQHKNHTCLVFEMLEQNLYDFLKQNKFSPLPLKYIRPVLQQVATALMKLKSLGLIHADLKPENIMLVDPSRQPYRVKVIDFGSASHVSKAVCSTYLQSRYYRAPEIILGLPFCEAIDMWSLGCVIAELFLGWPLYPGASEYDQIRYISQTQGLPAEYLLSAGTKTTRFFNRDTDSPYPLWRLKTPDDHEAETGIKSKEARKYIFNCLDDMAQVNMTTDLEGSDMLVEKADRREFIDLLKKMLTIDADKRVTPIETLNHPFVTMTHLLDFPHSAHVKSCFQNMEICKRRVNMYDTVNQSKTPFITHVAPSTSTNLTMTFNNQLTTVHNQAPTTSSATLSLANPEVSILNYQSALYQPSAASMAAVAPRSMPLQTGTAQICARPDPFQQALIVCPPGFQGLQASPSKHAGYSVRMENAVPIVTQAPGAQPLQIQPGLLAQQAWPGGAQQILLPPAWQQLTGVATHTSVQHAAVIPETMAGTQQLADWRNTHAHGSHYNPIMQQPALLTGHVTLPAAQPLNVGVAHVMRQQPTSTTSSRKSKQHQSSVRNVSTCEVTSSQAISSPQRSKRVKENTPPRCAMVHSSPACSTSVTCGWGDVASSTTRERQRQTIVIPDTPSPTVSVITISSDTDEEEEQKHAPTSTVSKQRKNVISCVTVHDSPYSDSSSNTSPYSVQQRTGHNGTNTLDTKGGLENHCTGNPRTIIVPPLKTQASEVLVECDSLGPAISASHHSSSFKSKSSSTVTSTSGHSSGSSSGAIAYRQQRPGPHFQQQQPLNLSQAQQHMAADRTGSHRRQQAYITPTMAQAPYTFPHNSPSHGTVHPHLAAAAHLPTQPHLYTYTAPTALGSTGTVAHLVASQGSARHTVQHTAYPASIVHQVPVSMGPRVLPSPTIHPSQYPAQFAHQTYISASPASTVYTGYPLSPAKVNQYPYI

Variants of: B1
Conditions: with mef2c_mouse Mef2c

Variant | effect of a mutation on the interaction
K228A | decreasing interaction strength
